# What was measured:
# [1] = molecular target: human Type 1 IGF receptor (human) (UniProt P08069); test: competitive displacement of 125I-Tyr31 IGF-I from IGF-1R
# [2] = molecular target: human Type 1 IGF receptor (human) (UniProt P08069); test: competitive displacement of 125I-Tyr31 IGF-I from IGF-1R (different receptor preparation from Tables 1A-1C)
Kd [1] [nM],Kd [2] [nM],Substance
8.39,3.86,"[Lys^B28, Pro^B29]-insulin (ligand; other documents disagree on this pair)"
41.8,,"α-D-mannopyranoside-O^β-Thr^B30-[His^A4, His^A8, Gly^A21]-insulin (ligand)"
